Legend:
[1] = target: human FAPα-His tag (Sino biological) (human) (UniProt Q12884); test: ELISA, coated human FAPα-His
[2] = target: mouse FAPα-His protein (mouse) (UniProt P97321); test: ELISA, coated mouse FAPα-His
[3] = target: human FAPα on CHO-K1-hFAPα cells (human) (UniProt Q12884); test: flow cytometry on CHO-K1-hFAPα cells
[4] = target: human FAPα on CHO-K1-hFAPα cells (human) (UniProt Q12884); test: flow cytometry on CHO-K1-hFAPα cells (MFI of PE); design: unit not given beside the values
[5] = target: human FAPα-His tag (Sino biological) (human) (UniProt Q12884); test: competitive ELISA on coated human FAPα; competitor (detected): FAP-G14-Bio
[6] = target: human FAPα-His tag (Sino biological) (human) (UniProt Q12884); test: competitive ELISA on coated human FAPα; competitor (detected): FAP-G52-Bio
[7] = target: human FAPα-His tag (Sino biological) (human) (UniProt Q12884); test: competitive ELISA on coated human FAPα; competitor (detected): FAP-I30-Bio
[8] = target: human FAPα-His tag (Sino biological) (human) (UniProt Q12884); test: competitive ELISA on coated human FAPα; competitor (detected): FAP-I37-Bio
[9] = target: human FAPα-His tag (Sino biological) (human) (UniProt Q12884); test: competitive ELISA on coated human FAPα; competitor (detected): FAP-I38-Bio
[10] = target: human FAPα-His tag (Sino biological) (human) (UniProt Q12884); test: competitive ELISA on coated human FAPα; competitor (detected): FAP-J40-Bio
[11] = target: human FAPα-His tag (Sino biological) (human) (UniProt Q12884); test: SPR (Biacore T200), mAb captured on Protein A chip, human FAPα-His as analyte
[12] = target: human FAPα-His tag (Sino biological) (human) (UniProt Q12884); test: competitive ELISA on coated human FAPα; competitor (detected): FAPα (BMK)-Bio
[13] = target: human FAPα-His tag (Sino biological) (human) (UniProt Q12884); test: competitive ELISA on coated human FAPα; biotinylated mAb alone, no competing Ab (row '0')

Chain of human FAPα-His tag (Sino biological) (human) (Q12884 26-760 limits assumed): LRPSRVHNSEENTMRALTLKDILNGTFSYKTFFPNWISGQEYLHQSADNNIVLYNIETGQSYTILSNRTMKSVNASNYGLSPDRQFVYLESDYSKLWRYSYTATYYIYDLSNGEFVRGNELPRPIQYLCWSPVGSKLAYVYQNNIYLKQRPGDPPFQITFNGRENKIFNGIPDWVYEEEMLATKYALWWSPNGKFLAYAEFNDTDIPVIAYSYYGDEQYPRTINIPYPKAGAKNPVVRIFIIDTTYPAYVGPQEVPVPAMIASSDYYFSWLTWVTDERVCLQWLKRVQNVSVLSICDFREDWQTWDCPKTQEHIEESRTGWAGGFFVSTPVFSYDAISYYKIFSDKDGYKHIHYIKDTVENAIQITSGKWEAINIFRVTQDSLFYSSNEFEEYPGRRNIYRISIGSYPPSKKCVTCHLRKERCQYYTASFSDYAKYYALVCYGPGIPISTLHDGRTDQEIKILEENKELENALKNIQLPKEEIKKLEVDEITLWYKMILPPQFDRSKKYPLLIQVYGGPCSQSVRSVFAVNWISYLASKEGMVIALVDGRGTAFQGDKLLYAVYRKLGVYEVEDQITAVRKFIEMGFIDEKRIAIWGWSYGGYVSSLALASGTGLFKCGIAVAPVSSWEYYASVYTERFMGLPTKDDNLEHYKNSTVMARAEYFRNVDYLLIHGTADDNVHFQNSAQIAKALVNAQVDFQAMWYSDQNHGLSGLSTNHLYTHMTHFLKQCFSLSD
Chain of human FAPα on CHO-K1-hFAPα cells (human) (Q12884 whole entry): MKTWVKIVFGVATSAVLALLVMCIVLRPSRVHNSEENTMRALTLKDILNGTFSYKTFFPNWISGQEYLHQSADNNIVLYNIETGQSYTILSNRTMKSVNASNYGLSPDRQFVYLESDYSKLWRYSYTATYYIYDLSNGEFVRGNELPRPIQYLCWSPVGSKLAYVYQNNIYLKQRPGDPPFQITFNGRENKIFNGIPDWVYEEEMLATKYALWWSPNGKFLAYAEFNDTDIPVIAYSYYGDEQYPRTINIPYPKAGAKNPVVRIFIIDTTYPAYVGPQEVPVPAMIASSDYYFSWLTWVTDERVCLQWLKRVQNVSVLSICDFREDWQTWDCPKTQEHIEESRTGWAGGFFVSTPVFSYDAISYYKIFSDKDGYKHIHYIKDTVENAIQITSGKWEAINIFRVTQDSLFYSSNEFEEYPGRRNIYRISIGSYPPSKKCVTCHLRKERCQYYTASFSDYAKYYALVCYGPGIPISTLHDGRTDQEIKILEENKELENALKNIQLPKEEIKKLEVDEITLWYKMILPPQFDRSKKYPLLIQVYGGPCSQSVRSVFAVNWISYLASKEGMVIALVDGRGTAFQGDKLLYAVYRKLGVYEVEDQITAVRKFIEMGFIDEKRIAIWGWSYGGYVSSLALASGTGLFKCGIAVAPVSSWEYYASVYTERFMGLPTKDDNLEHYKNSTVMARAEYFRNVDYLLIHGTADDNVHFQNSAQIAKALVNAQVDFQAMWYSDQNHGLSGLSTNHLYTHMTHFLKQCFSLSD
Chain of mouse FAPα-His protein (mouse) (P97321 26-761 limits assumed): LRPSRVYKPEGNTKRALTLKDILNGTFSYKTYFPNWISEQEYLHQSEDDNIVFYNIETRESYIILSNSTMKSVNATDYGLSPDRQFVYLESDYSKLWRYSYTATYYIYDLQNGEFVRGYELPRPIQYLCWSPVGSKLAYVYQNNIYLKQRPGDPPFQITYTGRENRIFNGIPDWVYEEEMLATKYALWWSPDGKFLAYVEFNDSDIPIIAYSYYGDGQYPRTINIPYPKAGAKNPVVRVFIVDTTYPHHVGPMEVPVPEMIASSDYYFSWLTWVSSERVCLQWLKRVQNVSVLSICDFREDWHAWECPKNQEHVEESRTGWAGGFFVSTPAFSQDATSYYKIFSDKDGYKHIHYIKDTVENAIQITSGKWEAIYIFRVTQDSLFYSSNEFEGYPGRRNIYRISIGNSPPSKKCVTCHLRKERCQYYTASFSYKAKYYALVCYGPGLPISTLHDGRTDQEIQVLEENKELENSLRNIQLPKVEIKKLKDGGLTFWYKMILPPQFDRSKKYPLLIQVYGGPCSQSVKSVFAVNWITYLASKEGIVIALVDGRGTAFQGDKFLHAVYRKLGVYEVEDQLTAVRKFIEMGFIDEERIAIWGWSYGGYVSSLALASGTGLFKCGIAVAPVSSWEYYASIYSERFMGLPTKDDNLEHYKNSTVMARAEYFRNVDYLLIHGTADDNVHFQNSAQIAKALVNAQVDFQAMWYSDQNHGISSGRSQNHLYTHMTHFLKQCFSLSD

- EC50 [1]: 5.55 ng/mL
- EC50 [2]: 10.3 ng/mL
- EC50 [3]: 0.043 ng/mL
- Cmax [4]: 424
- OD 450 nm [5]: 0.135 OD 450 nm
- OD 450 nm [6]: 0.169 OD 450 nm
- OD 450 nm [7]: 0.155 OD 450 nm
- OD 450 nm [8]: 0.23 OD 450 nm
- OD 450 nm [9]: 0.265 OD 450 nm
- OD 450 nm [10]: 0.179 OD 450 nm
- Kd [11]: 6.94 nM
- koff [11]: 0.000208 s⁻¹
- kon [11]: 30000 M⁻¹ s⁻¹
- OD 450 nm [12]: 0.171 OD 450 nm
- OD 450 nm [13]: 1.26 OD 450 nm
Substance: FAP-4B9 clone from Roche (FAPα-BMK) (antibody)

Reference: patent US20250297032A1
